Reference: patent publication EP1141254B1

Assays:
Assay in all cases: cell-based or functional assay
[1] = biological target: 980601 (BX): purified preparation of Danisco's new bacterial xylanase expressed in E. coli (Bacillus subtilis) (UniProt P18429)
[2] = biological target: 980603 (Röhm): purified preparation of Frimond's Belase xylanase (identical to Röhm's) (Bacillus subtilis)
[3] = biological target: 980903 (XM1): purified mutant of Bacillus sub. wild type xylanase expressed in E. coli

Chain of endogenous endo-β-1,4-xylanase inhibitor from wheat flour (main, form in doubt): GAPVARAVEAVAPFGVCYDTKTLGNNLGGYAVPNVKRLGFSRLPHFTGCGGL
Chain of endogenous endo-β-1,4-xylanase inhibitor from wheat flour (main, form in doubt): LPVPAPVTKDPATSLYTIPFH

An Inhibition, % (inhibitor extracted from flour 98002) [1] of 67%, an Inhibition, % (inhibitor extracted from flour 98026) [1] of 75% and an OD 590 in the inhibitor assay with inhibitor extract from flour 98026 (without inhibitor: 0.675) [1] of 0.165 OD 590 were found for “endogenous endo-β-1,4-xylanase inhibitor from wheat flour” in this work. It also gave a Residual activity, % (inhibitor extract from flour 98026) [1] of 24.4%, a Rest act., % (average of flours 98002 and 98026) [1] of 29% and a Rest act., % (inhibitor extracted from flour 98002) [1] of 33%. The Rest act., % (inhibitor extracted from flour 98026) [1] was 25%, the Vmax from the Lineweaver-Burk plot of xylanase 980601 with and without inhibitor (relative OD 590) (relative OD 590) [1] was 1.19 and the Inhibition, % (inhibitor extracted from flour 98002) [2] was 60.8%. The Inhibition, % (inhibitor extracted from flour 98026) [2] was 61.3%, the Rest act., % (average of flours 98002 and 98026) [2] was 39% and the Rest act., % (inhibitor extracted from flour 98002) [2] was 39.2%. The Rest act., % (inhibitor extracted from flour 98026) [2] was 38.7% and the residual activity of XM1 after incubation with flour extract, relative to that of XM2 [3] was 2.5 fold.
